Results published in doi:10.1101/2021.09.05.459021 (bioRxiv, 2021).
Values joined by “and” are separate entries in the source; they are usually repeats but may differ in a detail not shown here. Identical values can stand only once.

Legend:
[1] = target: mTTYH3 ECD1-T4L-ECD2 (mouse | bacteriophage T4) (UniProt Q6P5F7); assay: cross-linking
EGFP fusion of KCNH1 = EGFP fusion of KCNH1 (UniProt O95259); assay: single-molecule subunit counting
SEC = target: the molecule itself; assay: SEC
[2] = target: the molecule itself; assay: single-molecule subunit counting
native gel or EMSA = target: the molecule itself; assay: native gel or EMSA

Molecule: mTTYH3 ECD1-T4L-ECD2 (from UniProt Q6P5F7 107-209; Q6P5F7 260-386) (domain or fragment)
- stoichiometry N [1]: 4

Molecule: EGFP fusion of KCNH1 (from UniProt O95259 1-989) (natural protein)
- stoichiometry N (EGFP fusion of KCNH1): 4

B1: mTTYH1-EGFP (C-terminal EGFP fusion of mouse TTYH1), expressed in HEK 293 cells (natural protein, UniProt Q9D3A9 1-450, looked up)
chain: MGAPPGYRPSAWVHLLHQLPRADFQLRPVPSGFAPRDQEYQQALLLVAALAGLGLGLSLIFIAVYLIRFCCCRPPEPHGAKSPPPGGGCVTWSCIAALLVGCAGIGIGFYGNSETSDGVSQLSSALLHANHTLSTIDDVVLETVERLGEAVKTELTTLEEVLSVRMELVAATRGARRQAEAAAQYLQGLAFWQGVSLSPVQVAEDVTFVEEYRWLAYVLLLLLVLLVCLFTLLGLAKQSKWLVVVMTAMSLLVLVLSWGSMGLEAATAVGLSDFCSNPDTYVLNLTQEETGLSSDILSYYFLCNQAVSNPFQQRLTLSQRALASIHSQLQGLEREAIPQFSAAQKPLLSLEETLNVTERSFHQLVALLHCRSLHKDYGSALRGLCEDALEGLLFLMLFSLLSAGALATTLCSLPRAWALFPPSDDYDDTDDDDPFNPQESKRFVQWQSSI
- stoichiometry N (SEC): 4 and 2

B2: mTTYH3-EGFP (C-terminal EGFP fusion of mouse TTYH3), expressed in HEK 293 cells (natural protein, UniProt Q6P5F7 1-524, looked up)
chain: MAGVSYAAPWWVSLLHRLPHFDLRWEATSSQFRPEDADYQQALLLLGATALACLALDLLFLLFYSFWLCCRRRKTDEHLDADCCCTAWCVIITTLVCSAGIAVGFYGNGETSDGIHRATYSLRHANRTVAGVQDRVWDTAAALNRTAEPNLQSLERQLAGRQEPLRAVQRLQTLLGTLLGYTAAIPFWRNPGVSLEVLAEQVDLYDWYRWLGYLGLLLLDVIICLLVLVGLIRSSKGILVGVCLLGVLALVISWGALGLELAVSVGSSDFCVDPDTFVTKMVEEHSVLSGDILQYYLACSPRATNPFQQKLSGSHKALVEMQDVVAELLRNVPREHPATKDPLLRVQEVLNGTEVNLQHLTALVDCRSLHLDYVQALTGFCYDGVEGLIYLALFSFVTALMFSSIVCSIPHTWQQKRGPDDDGEEETAPGPRQAHDSLYRVHMPSLYSCGSSYGSEASIPAAAHTVSNAPVTEYMSQNANFQNPRCENTPLIGRESPPPSYTSSMRAKYLATSQPRPDSSGSGH
- ratio of tetramers to dimers (SEC): ~1.5
- stoichiometry N (SEC): 4 and 2

B3: mTTYH1-EGFP (C-terminal EGFP fusion of mouse TTYH1), expressed in Xenopus oocytes (natural protein, UniProt Q9D3A9 1-450, looked up)
chain: B1 chain
- stoichiometry N [2]: 4

B4: mTTYH3-EGFP (C-terminal EGFP fusion of mouse TTYH3), expressed in Xenopus oocytes (natural protein, UniProt Q6P5F7 1-524, looked up)
chain: B2 chain
- stoichiometry N [2]: 4

B5: FLAG-tagged mouse TTYH1 (mTTYH1) (natural protein, UniProt Q9D3A9 1-450, looked up)
chain: B1 chain
- stoichiometry N (native gel or EMSA): 2 and 4

B6: FLAG-tagged mouse TTYH3 (mTTYH3) (natural protein, UniProt Q6P5F7 1-524, looked up)
chain: B2 chain
- stoichiometry N (native gel or EMSA): 2 and 4
